Drawing on publication PMC9754288, this text covers percent of transformed protoplasts with a YFP signal for one substance.

For the assay, the target named is SAP11_(CaPm) from 'Ca. P. mali' strain STAA, split-YFP fusion for BiFC ('Candidatus Phytoplasma mali' strain STAA). Description: split reporter (BiFC, NanoBiT); BiFC with split YFP from pBiFC-2in1 vectors in Nicotiana benthamiana mesophyll protoplasts; confocal microscopy 16 h after transformation; RFP marks transformed protoplasts.

Regarding “MdTCP16, split-YFP fusion for BiFC (natural protein)”, the percent of transformed protoplasts with a YFP signal was under 92.5%.
